From the supplement of paper PMC9170038 come the findings set out here.

For data set [1], the system named is MS2 coat protein. The experiment in a line: apparent KD of MS2 coat protein, switch OFF state (with FMN for OFF switches, without FMN for ON switches); designed switch direction (-1 OFF switch, 1 ON switch): -1; higher = weaker reporter binding. The note with it: FMN input: 0 or 200 uM; Eterna round: R93 (includes R88 designs). The method in brief:
(§1)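 Designed RNA switches were transcribed on-chip from Illumina sequencing clusters and titrated with SNAP-549-labelled MS2 coat protein in twofold steps from 0.7 or 1.5 nM up to 3 µM. Each step lasted 0.8–1.5 h at first and 10–20 min by the end, in 100 mM Tris-HCl pH 7.5, 80 mM KCl and 4 mM MgCl2, without or with constant ligand. Apparent KD is the median, for each design, of fits to normalised cluster binding curves.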

Data set [2] deals with MS2 coat protein. The experiment in a line: apparent KD of MS2 coat protein, switch ON state; designed switch direction (-1 OFF switch, 1 ON switch): -1; higher = weaker reporter binding. The note with it: FMN input: 0 or 200 uM; Eterna round: R93 (includes R88 designs). In a few lines:
as §1

Regarding “AAAAAGUCAGGAUAUACAUGAGGAUCACCCAUGUAAAAAAAAGGGAAAAAAAAAAAGGGUAGAAGGGACGAAAA [Exclusion 3]”, the “apparent KD of MS2 coat protein” value amounted to 0.0288 µM in data set [1] and 0.0253 µM in data set [2].

Consider “AAAAAGUCAGGAUAUACGAAAAAAAAAAAAAAAAAAAAAAAGUAGAAGGGACAUGAGGAUCACCCAUGUAAAAA [Exclusion 4]”, for which the “apparent KD of MS2 coat protein” value amounted to 0.0271 µM in data set [1] and 0.0889 µM in data set [2].

As for “AAAAAGUCAGGAUAUAUGCGAAAAAUAAAAAAAAUAAAAGCAUAGAAGGGACAUGAGGAUCACCCAUGUUAAAA [Ex 4 May 16]”, the “apparent KD of MS2 coat protein” value was 0.0266 µM in data set [1] and 0.0366 µM in data set [2].

“AAAAAGUCAGGAUAUCGGAAAAUAAAAAUAAAAAAAAAAAACGAGAAGGGACAUGAGGAUCACCCAUGUAUGAC [Mat - Exclusion 4 - Mayanna - D113]”: the “apparent KD of MS2 coat protein” value in data set [1] was 0.039 µM; in data set [2] it was 0.0452 µM.

On to “AAAAAGUCAGGAUAUCGUAGAAAAAUAUAAAUAAGAAAGUACGAGAAGGGACAUGAGGAUCACCCAUGUAAAAA [Ex 4 #1]”, for which the “apparent KD of MS2 coat protein” value came out at 0.0368 µM in data set [1] and 0.05 µM in data set [2].

Turning to “AAAAAGUCAGGAUAUGCACAAAAAAAAAUAAAAAAAAAAGUGCAGAAGGGACAUGAGGAUCACCCAUGUAAGAU [Mat - Exclusion 4 - Mayanna - D118]”, the “apparent KD of MS2 coat protein” value in data set [1] is 0.0772 µM; in data set [2] it was 0.081 µM.

Take “AAAAAGUCAGGAUAUGCAGACAAAGCAAAAAAGCAAUGUCUGCAGAAGGGACAUGAGGAUCACCCAUGUAAAAA [Ex 4 May 9]”: the “apparent KD of MS2 coat protein” value in data set [1] came out at 0.0446 µM; in data set [2], 0.0577 µM.

As for “AAAAAGUCAGGAUAUGUCAAAGGUCACGAAAGUGACAAAGGACAGAAGGGACAUGAGGAUCACCCAUGUAAAAA [Fiskers Exclusion 4 D1]”, the results for the “apparent KD of MS2 coat protein” value in data set [1] and in data set [2] were 0.0495 µM and 0.0535 µM, respectively.

For the sequence “AAAAAGUGAGGAUAUGCAGUGGCCUGUAGACGCGAGCACUUGUAGAAGGCACAUGAGGAUCACCCAUGUUUAAA [EX4 Malc#29]”, the “apparent KD of MS2 coat protein” value in data set [1] is 0.0205 µM; in data set [2], 0.0213 µM.

Regarding “AAAAAGUGAGGAUAUGCGCUGUCAUGUAGACACGAGCAGUCGUAGAAGGCACAUGAGGAUCACCCAUGUUUAAA [EX4 Malc#24]”, the “apparent KD of MS2 coat protein” value in data set [1] is 0.02 µM; in data set [2] it was 0.0319 µM.

On to “AAAAAGUGAGGAUAUGGAAAAAAAAAAAAAAAAAAAAAAAACCAGAAGGCACAUGAGGAUCACCCAUGUAAAAA [exclusive 2]”, for which the entries for the “apparent KD of MS2 coat protein” value in data set [1] and in data set [2] were 0.0309 µM and 0.0386 µM, respectively.

For “AAAAAGUGAGGAUAUGGAAAAAAAAAAAAAAAAAAAAAAAACCAGAAGGCACAUGAGGAUCACCCAUGUAAAAA [low kcal]”, the “apparent KD of MS2 coat protein” value in data set [1] was determined as 0.0309 µM; in data set [2], 0.0386 µM.

As to “AAAAAGUGAGGAUAUGUCAAAGGUCACGAAAGUGACAAAGGACAGAAGGCACAUGAGGAUCACCCAUGUGGGAA [Fiskers Exclusion 4D1 65% - Early + late G segment 1]”, the “apparent KD of MS2 coat protein” value in data set [1] was 0.0776 µM; in data set [2], 0.0674 µM.

Regarding “AAAAAGUGAGGAUAUUCGGAUAGGAAAACGAAAACCUAUCCGAAGAAGGCACAUGAGGAUCACCCAUGUGAAAG [Mat - Exaclusion 4 - Eli mod - D42]”, the figures for the “apparent KD of MS2 coat protein” value in data set [1] and in data set [2] were 0.0294 µM and 0.028 µM, respectively.

“AAAAAUCGAGGAUAUACAUGAGGAUCACCCAUGUUGGAAAACGAUUACACAAAAGAAAGUAGAAGGCGAUAAAA [Ex 3 May 21]”: the “apparent KD of MS2 coat protein” value in data set [1] amounted to 0.0247 µM; in data set [2], 0.0165 µM.

On to “AAAAAUGGAGGAUAUACAUGAGGAUCACCCAUGUGUAUAAAAAAAUACACAAAAGAAAGUAGAAGGCCAUAAAA [Ex 3 Ice]”, for which the entries for the “apparent KD of MS2 coat protein” value in data set [1] and in data set [2] were 0.0943 µM and 0.035 µM, respectively.

Take “AAAAAUGGAGGAUAUACGUACAUGUCAAAAGACGUGAAGGGACAUGAGGAUCACCCAUGUAGAAGGCUAAAAAA [JL Stem Breaker 7]”: the “apparent KD of MS2 coat protein” value in data set [1] is 0.0295 µM; in data set [2], 0.0801 µM.

For “AAAAAUUGAGGAUAUACGAACAUGUCAAAAGACGUGAAGGGACAUGAGGAUCACCCAUGUAGAAGGCGAAAGAA [JL Loop Breaker 1]”, the “apparent KD of MS2 coat protein” value in data set [1] worked out at 0.0199 µM; in data set [2], 0.0451 µM.

“AAAACACAUGAGGAUCACCCAUGUUAGGAUAUCCACGCUACUAAUCCUAAACAAAGCGGGAGAAGGAACGUGGC [Xerereonan]”: the “apparent KD of MS2 coat protein” value in data set [1] came out at 0.0175 µM; in data set [2], 0.0209 µM.

For “AAAACGUGAGGAUAUGCACCAAAAAAGGUAAAUCGGGUACGACAUGAGGAUCACCCAUGUAGAAGGCACGAAAA [Frodo Flailing 11 - Jieux - Exclusion 2]”, the “apparent KD of MS2 coat protein” value was determined as 0.0429 µM in data set [1] and 0.0282 µM in data set [2].

Turning to “AAAACGUGAGGAUAUGCACCAAAAAAGGUAAUUCGGGUACGACAUGAGGAUCACCCAUGUAGAAGGCACGAAAA [Frodo Flailing 12 - Jieux - Exclusion 2]”, the “apparent KD of MS2 coat protein” value is 0.0287 µM in data set [1] and 0.0299 µM in data set [2].

On to “AAAAGACAUGAGGAUCACCCAUGUAAGGAUAUGCAGAGAGCAAAACAAAAAAAAAAAAGCAGAAGGUACAUAAA [Design2]”, for which the entries for the “apparent KD of MS2 coat protein” value in data set [1] and in data set [2] were 0.0651 µM and 0.0554 µM, respectively.

For the sequence “AAAAGACAUGAGGAUCACCCAUGUGAGGAUAUCGGAAAAGGAAAAAAAAAAAAGAAGACGAGAAGGCACACCAA”, the “apparent KD of MS2 coat protein” value was 0.0338 µM in data set [1] and 0.0425 µM in data set [2].

With “AAAAGACAUGAGGAUCACCCAUGUGAGGAUAUGCAAAACCCAUAUAAAAAGGGAAAAAGCAGAAGGUACAAAAA [wbt round 1 mod 13]”, the “apparent KD of MS2 coat protein” value in data set [1] was 0.0405 µM; in data set [2], 0.0296 µM.

With “AAAAGCAAAGGAUAUACAUGAGGAUCACCCAUGUAAAAAAGAAAAGAGUAUAUGGCAUGUAGAAGGUUGCGUGG [Rabisoxe]”, the “apparent KD of MS2 coat protein” value is 0.0549 µM in data set [1] and 0.0262 µM in data set [2].

For the sequence “AAAAGUACAGGAUAUACAUGAGGAUCACCCAUGUAGAAAGGAAGUGUAAAAAAAAAGUGUAGAAGGGUGCAUGA [MS2 Riboswitches On Chip Exclusion 3 wbt1]”, the “apparent KD of MS2 coat protein” value is 0.0212 µM in data set [1] and 0.0225 µM in data set [2].

Turning to “AAACCACAUGAGGAUCACCCAUGUCAGGAUAUGCAAACAACAAACAACAAACAACAAAGCAGAAGGGACAACAA [63%, Olong, 2]”, the “apparent KD of MS2 coat protein” value in data set [1] was found to be 0.018 µM; in data set [2], 0.0138 µM.

Regarding “AAACGUACAGGAUAUACGAAAAGAUUACGAAAGUAAUCGGGACAUGAGGAUCACCCAUGUAGAAGGGUACGAAA [Mod2 of Meechl 64% 4]”, the “apparent KD of MS2 coat protein” value in data set [1] stood at 0.0617 µM; in data set [2] it was 0.048 µM.

As to “AAACGUUGAGGAUAUACAGAAGGGUAUAAAUCAAAAAAAACACAUGAGGAUCACCCAUGUAGAAGGCAACGAAA”, the “apparent KD of MS2 coat protein” value stood at 0.0504 µM in data set [1] and 0.0989 µM in data set [2].

As to “AAAGGACAUGAGGAUCACCCAUGUGAGGAUAUCGGAAAAGGAAAAAUAAAAAAGAAGACGAGAAGGCACACCAA [Mat - Exclusion 1 - Eli mod - D76]”, the entries for the “apparent KD of MS2 coat protein” value in data set [1] and in data set [2] were 0.0598 µM and 0.0806 µM, respectively.
